# Laboratory results from patent US8404239B2, “Anti-Notch2 NRR antibodies” (Genentech, Inc., priority 2008, dated 2013).
# Assays:
# [1] = tested on: Notch1-NRR / Notch2 NRR chimeric proteins; experiment: Epitope mapping: plate binding to Notch1-NRR/Notch2 NRR chimeric proteins fused to alkaline phosphatase; settings: domain swap
# Procedure: The indicated NRR protein fragments (dark blue, Notch1 sequences; light blue, Notch2 sequences) were expressed as secreted proteins fused to alkaline phosphatase to enable rapid measurements of antibody binding in a plate-based assay. […] Antibody binding was assessed by measuring alkaline phosphatase activity that remained bound to the plate. […] (B) Structure of human Notch NRR1. NRR1 is shown as a C-alpha cartoon. The three calcium ions in the LNR motifs are shown as spheres. The position of the S2 cleavage site is marked with an arrow. (C) Superposition of NRR1 on NRR2 (chain A from pdb code 2OO4) based on structurally conserved atoms. NRR1 (shaded) and NRR2 (white) are shown as C-alpha traces. (D) Open-book view of the interface between NRR1 (left) and α-NRR1 Fab (right, border between heavy and light chains shown as a black dashed line). The extent to which the solvent accessible surface area is buried by complex formation is indicated.
# Synthetic Notch1 and Notch2 NRR sequences were designed with unique restriction sites at junctions between the five domains of the NRR-LNR-A; LNR-B; LNR-C; HD-N; and HD-C—and produced by Blue Heron Technology (Bothell, Wash.). Swapping various domains between the two synthetic sequences, using the engineered restriction sites, generated chimeric NRR proteins. The chimeric clones were assembled in a modified pUC19 vector and transferred to a SEAP containing vector, pCSC.AP, for expression. AP-tagged NRR proteins were produced by transfection of 293T cells. After 72 hr culture, the conditioned media was collected, cleared by centrifugation, and tested for AP activity using the Phospha-Light System (Applied Biosystems, Bedford, Mass.). The AP activity in each sample was normalized and an ELISA was performed to test the ability of α-NRR1 or α-NRR2 to bind the chimeric NRR proteins. The ELISA was performed as follows: either α-NRR1 or α-NRR2 was captured by a plate bound α-Fc antibody in 96-well format and incubated with the conditioned media overnight. The plate was washed to remove unbound protein, and the captured protein was tested for AP activity using the Phospha-Light System.
# [2] = tested on: other three non-targeted receptors; experiment: Binding to non-targeted Notch receptors (SPR, ELISA, FACS); design: species or system human, mouse; settings: ELISA and FACS
# Procedure: Binding affinities of anti-Notch2 NRR antibodies were measured by Surface Plasmon Resonance (SRP) using a BIAcore™-3000 instrument. Anti-Notch2 NRR human IgGs were captured by mouse anti-human IgG coated on the CM5 sensor chip to achieve approximately 200 response units (RU). For kinetics measurements, two-fold serial dilutions of human and mouse Notch2 NRR (3.9 nM to 500 nM) were injected in PBT buffer (PBS with 0.05% Tween 20) at 25° C. with a flow rate of 30 μl/min. Association rates (kon) and dissociation rates (koff) were calculated using a simple one-to-one Langmuir binding model (BIAcore Evaluation Software version 3.2). The equilibrium dissociation constant (KD) was calculated as the ratio koff/kon.
# Anti-Flag antibody was used to capture Flag-Tagged NRR protein from all four Notch receptors in a black walled, high binding plate (Greiner). NRR antibody and E25 control antibodies were bound to the NRR proteins and washed away with PBS. An Alkaline Phosphate conjugated anti-human (H+L) secondary antibody (Jackson ImmunoResearch) was used to detect bound anti-NRR and E25. Unbound secondary was washed away and AP was detected with PNPP substrate (Pierce). […]
# LOX-IMVI melanoma cells = experiment: Cell Titer Glo viability of melanoma cell line LOX-IMVI; format: cell-based, human; settings: six days, antibodies 20 mg/ml, DAPT 5 μM, ± Jagged-1
# Procedure: Human melanoma cell lines SK23 and LOX-IMVI were plated in medium containing 2% FBS at low density (4000 cells/well for SK23, 2500 cells/well for LOX-IMVI) in 96 well plates that were coated without (−jag-1) or with Jagged-1 ligand (+jag-1) (R&D Systems, Minneapolis, Minn.). […] An equal volume of DMSO served as the vehicle control, whereas an equal concentration of anti-gD HuB6 phage antibody served as the isotype control antibody. Cell Titer Glo assays (Promega, Madison, Wis.) were performed six days after plating. […] In FIGS. 25A and 25B, cell viability (y-axis) is expressed relative to the values from the DMSO vehicle, −jag-1 control wells.
# [3] = tested on: intestinal cell differentiation; experiment: Histology and immunohistochemistry of mouse intestine tissue; format: in vivo; settings: 5 mg/kg, one day after final dosing (FIGS. 15C and 24B)
# Description: (A) Total body weight change (mean+/−standard deviation) vs. time. […] Arrows mark the days of dosing. (B) Immunohistochemical analyses of small intestines. […] In each row as indicated, staining is shown for haemotoxylin and eosin (H & E), Alcian Blue for mucin and to mark secretory goblet cells, lysozyme to mark Paneth cells, Ki-67 for proliferation and Hes1 as a Notch downstream target. See FIGS. 19 and 20 for analyses of the large intestine at day 7 and of the small intestine at day 2, respectively. Bar=40 μm. (C) Comparison of Notch1- versus Notch2-specific inhibition on small intestinal cell differentiation. Small intestines from the study described in (A) were prepared for Alcian Blue and Ki-67 one day after the final dosing with α-gD, α-NRR1 or α-NRR2, as indicated. Bar=50 μm.
# Formalin-fixed and paraffin-embedded mouse small intestine tissues were sectioned at 3 micron thickness. Histochemical identification of intestinal cell types was performed with Alcian blue as recommended by the manufacturer (PolyScientific). For anti-Ki67 staining, sections were pretreated with Target Retrieval Solution (S1700, DAKO), and incubated with rabbit anti-Ki67 (1:200, clone SP6, Neomarkers). Secondary goat anti-rabbit at 7.5 μg/ml (Vector labs) was detected with the Vectastain ABC Elite Kit (Vector labs). Ki67 stained sections were counterstained with Mayer's haemotoxylin. For anti-lysozyme staining, sections were processed on the Discovery XT platform (Ventana Medical Systems, Inc.) using CC1m epitope recovery conditions, OmniMap-rabbit detection and Ventana haemotoxylin II/with bluing counterstain. For HES-1 staining, anti-rat HES-1 (clone NM1, MBL, International) was followed by TSA-HRP.
# The effect of inhibiting both Notch1 and Notch2 on intestinal cell fate determination was also investigated. […] The intestines were harvested and stained with H&E to reveal the crypt morphology. […] Further experimentation confirmed this observation.
molecule,measurement,setting,value
"anti-NRR2: affinity matured form of Antibody D, phage library-derived human anti-Notch2 NRR monoclonal antibody (antibody, V domains shown) VH: EVQLVESGGGLVQPGGSLRLSCAASGYTFSSYGMSWVRQAPGKGLEWVSYIYPYSGATYYADSVKGRFTISADTSKNTAYLQMNSLRAEDTAVYYCARHSGYYRISSAMDVWGQGTLVTVSA VL: DIQMTQSPSSLSASVGDRVTITCRASQNIKRFLAWYQQKPGKAPKLLIYGASTRESGVPSRFSGSGSGTDFTLTISSLQPEDFATYYCQQYYRSPHTFGQGTKVEIKR",binding to chimera containing only the LNR-A and HD-C subdomains from NRR2,[1],weak but detectable binding
same,binding to chimera with LNR-A of NRR1 in the NRR2 backbone,[1],completely disrupted
same,binding to chimeras C.Hn and BC (only three subdomains from NRR2),[1],full binding
same,binding to chimeras with swaps of LNR-B or LNR-C in the NRR2 backbone,[1],no effect
same,binding to human or mouse sequences of the other three non-targeted receptors,[2],no binding
same,cell viability,LOX-IMVI melanoma cells,decrease in viability
same,"effects on small intestine (goblet cells, Alcian Blue)",[3],did not cause any detectable effects
